Test results from doi:10.1101/2025.08.28.672883 (bioRxiv, 2025).
Positions count from the first letter of the chain named.

Experiments:
Details in all cases: both partners purified
[1] = target: SARS-CoV-2 Omicron BA.1 spike receptor-binding domain (SARS-CoV-2 Omicron BA.1, S371L | S373P | S375F | Q493R | Q498R | N501Y | Y505H); assay: BLI; Octet Red; […] (20 ug/ml) […]; kinetics buffer 1x PBS pH 7.4, 0.01% BSA, 0.002% Tween 20; 1:1 binding model
[2] = target: SARS-CoV-2 Omicron BA.5 spike receptor-binding domain (SARS-CoV-2 Omicron BA.5, S375F | D405N | N501Y | Y505H); assay: crystal structure
[3] = target: SARS-CoV-2 Omicron XBB.1.5 spike receptor-binding domain (SARS-CoV-2 Omicron XBB.1.5, strain); assay: BLI; Octet Red; […] (20 ug/ml) […]; kinetics buffer 1x PBS pH 7.4, 0.01% BSA, 0.002% Tween 20; 1:1 binding model
[4] = target: SARS-CoV-2 Omicron BQ.1.1 spike receptor-binding domain (SARS-CoV-2 Omicron BQ.1.1, strain); assay: as above
[5] = target: SARS-CoV-2 Omicron JN.1 spike receptor-binding domain (SARS-CoV-2 Omicron JN.1, strain); assay: as above

Measured: binding result

B1: ADI-77310 Fab (Fab, V domains shown)
VH: EVQLVESGGGLVKPGGSLRLSCAASGFTFGSYYMNWVRQAPGKGLEWVSSISEDGYSTYYPDSLKGRFTISRDSAKNSLYLQMNSLRADDTAVYYCARDFGGHTAWAGTGFTYWGQGTLVTVSS
VL: QSVLTQPPSVSGAPGQRITISCTGSSSNIGAGYDVHWYQQLPGTAPKLLIYGSSSRNSGVPDRFSGSKSGTSASLAITGLQAEDEADYYCQSYDSDLSVLYTFGTGTKVTVL
binds: [1]

B2: VYD222 Fab (Fab, V domains shown)
VH: B1 VH with Y33E, H103D
VL: B1 VL with S58Y, S98G
binds: all assays above
